Results: patent publication US20240018502A1
Residue numbers refer to the chain shown, from its start. In names and notes the source's numbering stands. One block for each binder: values may come before it.

Biological target: plasma purified human complement protein C3 (human) (UniProt P01024)
Assay: cell-based or functional assay

Chain of plasma purified human complement protein C3 (human) (P01024 23-667, chain 1 of 2): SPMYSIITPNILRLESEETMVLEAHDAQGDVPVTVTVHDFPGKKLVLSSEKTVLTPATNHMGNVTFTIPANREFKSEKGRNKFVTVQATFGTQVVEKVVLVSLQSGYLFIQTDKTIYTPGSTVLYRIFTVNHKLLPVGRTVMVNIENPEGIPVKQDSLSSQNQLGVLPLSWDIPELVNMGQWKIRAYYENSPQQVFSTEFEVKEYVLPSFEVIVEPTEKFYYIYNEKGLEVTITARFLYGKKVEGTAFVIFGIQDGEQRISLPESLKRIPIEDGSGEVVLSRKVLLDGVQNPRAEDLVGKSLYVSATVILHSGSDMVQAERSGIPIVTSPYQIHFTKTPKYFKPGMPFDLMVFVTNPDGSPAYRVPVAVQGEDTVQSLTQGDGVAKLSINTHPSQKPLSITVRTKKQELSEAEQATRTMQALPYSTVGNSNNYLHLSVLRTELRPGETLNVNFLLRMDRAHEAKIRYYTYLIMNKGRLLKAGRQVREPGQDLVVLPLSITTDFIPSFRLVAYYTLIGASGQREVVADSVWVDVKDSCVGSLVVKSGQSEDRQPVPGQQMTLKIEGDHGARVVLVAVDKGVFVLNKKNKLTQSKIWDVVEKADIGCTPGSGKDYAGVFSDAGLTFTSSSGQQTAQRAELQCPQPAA
Chain of plasma purified human complement protein C3 (human) (P01024 672-1663, chain 2 of 2): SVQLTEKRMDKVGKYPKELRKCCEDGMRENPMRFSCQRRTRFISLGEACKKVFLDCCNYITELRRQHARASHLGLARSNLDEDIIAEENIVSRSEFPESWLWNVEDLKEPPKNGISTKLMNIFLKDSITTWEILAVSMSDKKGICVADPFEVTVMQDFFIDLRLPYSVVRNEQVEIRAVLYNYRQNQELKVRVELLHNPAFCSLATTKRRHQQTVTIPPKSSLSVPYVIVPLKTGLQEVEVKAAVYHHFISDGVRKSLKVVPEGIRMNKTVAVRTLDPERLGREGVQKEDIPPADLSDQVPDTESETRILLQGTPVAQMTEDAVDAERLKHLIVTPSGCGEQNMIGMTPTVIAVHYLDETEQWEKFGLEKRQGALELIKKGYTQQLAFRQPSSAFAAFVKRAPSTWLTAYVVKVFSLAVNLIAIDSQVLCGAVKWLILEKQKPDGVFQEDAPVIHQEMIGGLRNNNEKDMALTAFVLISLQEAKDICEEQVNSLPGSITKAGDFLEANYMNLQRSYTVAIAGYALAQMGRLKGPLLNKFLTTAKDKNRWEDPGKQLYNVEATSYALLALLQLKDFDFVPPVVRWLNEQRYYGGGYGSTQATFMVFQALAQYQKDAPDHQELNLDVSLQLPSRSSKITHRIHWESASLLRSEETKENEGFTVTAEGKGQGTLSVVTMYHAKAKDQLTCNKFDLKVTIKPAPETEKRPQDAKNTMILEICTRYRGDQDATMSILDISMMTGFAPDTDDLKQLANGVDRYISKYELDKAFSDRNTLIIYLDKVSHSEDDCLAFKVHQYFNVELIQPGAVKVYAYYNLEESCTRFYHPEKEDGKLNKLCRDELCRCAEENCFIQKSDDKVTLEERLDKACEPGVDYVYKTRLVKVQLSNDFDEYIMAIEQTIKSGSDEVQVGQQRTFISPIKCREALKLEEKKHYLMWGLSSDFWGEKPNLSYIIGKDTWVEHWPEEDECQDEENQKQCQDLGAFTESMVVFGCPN

B2: MTSP-1 Q38H/I41S/D60bT/F60eS/Y60gW/D96K/F97G/T98P/F99L/C122S/G151H/Q175L/Q192D (enzyme)
chain: VVGGTDADEGEWPWQVSLHALGHGHSCGASLISPNWLVSAAHCYIDTRGSRWSDPTQWTAFLGLHDQSQRSAPGVQERRLKRIISHPFFNKGPLDYDIALLELEKPAEYSSMVRPISLPDASHVFPAGKAIWVTGWGHTQYGGTHALILQKGEIRVINQTTCENLLPQLITPRMMCVGFLSGGVDSCDGDSGGPLSSVEADGRIFQAGVVSWGDGCAQRNKPGVYTRLPLFRDWIKENTGV
EC50 of hC3 cleavage: 7.88 nM

B3: MTSP-1 protease domain I41S/T98S/F99L/C122S/Q192A (enzyme)
chain: B2 chain with H23Q, T47D, S50F, W52Y, K91D, G92F, P93S, H145G, L169Q, D188A
EC50 hC3 cleavage: 17.4 nM

B4: MTSP-1 protease domain I41S/F97Q/F99L/C122S/Q192S (enzyme)
chain: B2 chain with H23Q, T47D, S50F, W52Y, K91D, G92Q, P93T, H145G, L169Q, D188S
EC50 hC3 cleavage: 53.5 nM

B6: MTSP-1 protease domain I41S/Y59F/ins97aV/C122S/G187D/Q192V/D217V (enzyme)
chain: VVGGTDADEGEWPWQVSLHALGQGHSCGASLISPNWLVSAAHCFIDDRGFRYSDPTQWTAFLGLHDQSQRSAPGVQERRLKRIISHPFFNDFVTFDYDIALLELEKPAEYSSMVRPISLPDASHVFPAGKAIWVTGWGHTQYGGTGALILQKGEIRVINQTTCENLLPQQITPRMMCVGFLSGDVDSCVGDSGGPLSSVEADGRIFQAGVVSWGVGCAQRNKPGVYTRLPLFRDWIKENTGV
EC50 hC3 cleavage: 8.35 nM

B8: MTSP-1 protease domain I41A/F97G/ins97aM/T98L/C122S (enzyme)
chain: B6 chain with S26A, F44Y, F92G, V93M, T94L, D184G, V189Q, V215D
EC50 hC3 cleavage: 40.1 nM

B9: MTSP-1 protease domain I41S/F93L/ins97aV/C122S/Q192V/D217V (enzyme)
chain: B6 chain with F44Y, F88L, D184G
EC50 hC3 cleavage: 9.82 nM

B10: MTSP-1 protease domain I41A/F97S/ins97aA/C122S (enzyme)
chain: B6 chain with S26A, F44Y, F92S, V93A, D184G, V189Q, V215D
EC50 hC3 cleavage: 19.8 nM

B11: MTSP-1 protease domain I41A/F97G/ins97aV/T98E/C122S (enzyme)
chain: B6 chain with S26A, F44Y, F92G, T94E, D184G, V189Q, V215D
EC50 hC3 cleavage: 18.1 nM

B15: MTSP-1 protease domain I41S/S90T/ins97aV/C122S/Q192N/D217V (enzyme)
chain: B6 chain with F44Y, S85T, D184G, V189N
EC50 hC3 cleavage: 13.4 nM

B16: MTSP-1 Q38H/I41S/D60bT/F60eS/Y60gW/D96K/F97G/ins97aV/F99L/C122S/G151H/Q175L/Q192D (enzyme)
chain: VVGGTDADEGEWPWQVSLHALGHGHSCGASLISPNWLVSAAHCYIDTRGSRWSDPTQWTAFLGLHDQSQRSAPGVQERRLKRIISHPFFNKGVTLDYDIALLELEKPAEYSSMVRPISLPDASHVFPAGKAIWVTGWGHTQYGGTHALILQKGEIRVINQTTCENLLPQLITPRMMCVGFLSGGVDSCDGDSGGPLSSVEADGRIFQAGVVSWGDGCAQRNKPGVYTRLPLFRDWIKENTGV
EC50 of hC3 cleavage: 9.83 nM

B18: MTSP-1 Q38H/I41S/D60bT/F60eS/Y60gW/D96K/F97G/ins97aV/T98P/C122S/G151H/Q175L/Q192D (enzyme)
chain: B16 chain with T94P, L95F
EC50 of hC3 cleavage: 18.3 nM

B20: MTSP-1 protease domain I41S/F97V/ins97aV/T98P/C122S (enzyme)
chain: B6 chain with F44Y, F92V, T94P, D184G, V189Q, V215D
EC50 hC3 cleavage: 30.9 nM

B21: MTSP-1 protease domain I41S/F97G/ins97aA/T98P/C122S/Q192A (enzyme)
chain: B6 chain with F44Y, F92G, V93A, T94P, D184G, V189A, V215D
EC50 hC3 cleavage: 57.2 nM

B23: MTSP-1 protease domain I41S/Y59F/F97S/ins97aV/S116Y/C122S/Q192G/D217V (enzyme)
chain: B6 chain with F92S, S112Y, D184G, V189G
EC50 hC3 cleavage: 8.22 nM

B24: MTSP-1 protease domain I41S/S90P/ins97aV/C122S/Y146E/Q192N/D217V (enzyme)
chain: B6 chain with F44Y, S85P, Y142E, D184G, V189N
EC50 hC3 cleavage: 6.47 nM

B28: MTSP-1 protease domain I41S/D96E/ins97aG/C122S/G151Q/Q192A (enzyme)
chain: B6 chain with F44Y, D91E, V93G, G146Q, D184G, V189A, V215D
EC50 hC3 cleavage: 44.4 nM

B29: MTSP-1 protease domain I41S/Y59F/ins97aV/C122S/Q192A (enzyme)
chain: B6 chain with D184G, V189A, V215D
EC50 hC3 cleavage: 16.6 nM

B30: MTSP-1 protease domain I41S/S90T/ins97aV/C122S/Q192V/D217V (enzyme)
chain: B6 chain with F44Y, S85T, D184G
EC50 hC3 cleavage: 10.5 nM

B31: MTSP-1 protease domain A35V/I41S/Y59F/C122S/Q192D/D217V (enzyme)
chain: VVGGTDADEGEWPWQVSLHVLGQGHSCGASLISPNWLVSAAHCFIDDRGFRYSDPTQWTAFLGLHDQSQRSAPGVQERRLKRIISHPFFNDFTFDYDIALLELEKPAEYSSMVRPISLPDASHVFPAGKAIWVTGWGHTQYGGTGALILQKGEIRVINQTTCENLLPQQITPRMMCVGFLSGGVDSCDGDSGGPLSSVEADGRIFQAGVVSWGVGCAQRNKPGVYTRLPLFRDWIKENTGV
EC50 hC3 cleavage: 39.8 nM

B32: MTSP-1 protease domain I41G/F97L/F99L/C122S/Q192S (enzyme)
chain: B31 chain with V20A, S26G, F44Y, F92L, F94L, D188S, V214D
EC50 hC3 cleavage: 41.4 nM

B33: MTSP-1 protease domain I41A/F97W/T98S/F99L/C122S/Q192A (enzyme)
chain: B31 chain with V20A, S26A, F44Y, F92W, T93S, F94L, D188A, V214D
EC50 hC3 cleavage: 27 nM

B34: MTSP-1 protease domain I41G/F97E/F99L/C122S/Q192A (enzyme)
chain: B31 chain with V20A, S26G, F44Y, F92E, F94L, D188A, V214D
EC50 hC3 cleavage: 30.1 nM

B35: MTSP-1 protease domain I41L/N95D/D96T/F97W/F99L/C122S/Q192A (enzyme)
chain: B31 chain with V20A, S26L, F44Y, N90D, D91T, F92W, F94L, D188A, V214D
EC50 hC3 cleavage: 62.6 nM

Other lines, results leading:

EC50 hC3 cleavage: 247 nM
B1: MTSP-1 protease domain I41T/Y60gL/N95D/D96F/F97S/F99L/C122S/Q175S/Q192A (enzyme)
chain: VVGGTDADEGEWPWQVSLHALGQGHTCGASLISPNWLVSAAHCYIDDRGFRLSDPTQWTAFLGLHDQSQRSAPGVQERRLKRIISHPFFDFSTLDYDIALLELEKPAEYSSMVRPISLPDASHVFPAGKAIWVTGWGHTQYGGTGALILQKGEIRVINQTTCENLLPQSITPRMMCVGFLSGGVDSCAGDSGGPLSSVEADGRIFQAGVVSWGDGCAQRNKPGVYTRLPLFRDWIKENTGV

EC50 hC3 cleavage: 44.7 nM
B5: MTSP-1 protease domain Q38H/I41T/D96K/ins97aL/C122S/G151N/Q192A (enzyme)
chain: B6 chain with Q23H, S26T, F44Y, D91K, V93L, G146N, D184G, V189A, V215D

EC50 hC3 cleavage: 25.6 nM
B7: MTSP-1 protease domain I41S/Y59F/ins97aV/C122S/Q192G (enzyme)
chain: B6 chain with D184G, V189G, V215D

EC50 hC3 cleavage: 26.8 nM
B12: MTSP-1 protease domain Q38H/I41S/D96K/ins97aD/C122S/G151N/Q192S (enzyme)
chain: B6 chain with Q23H, F44Y, D91K, V93D, G146N, D184G, V189S, V215D

EC50 hC3 cleavage: 34.6 nM
B13: MTSP-1 protease domain Q38H/I41S/D96G/ins97aG/C122S/G151N/Q192A (enzyme)
chain: B6 chain with Q23H, F44Y, D91G, V93G, G146N, D184G, V189A, V215D

EC50 hC3 cleavage: 10.9 nM
B14: MTSP-1 protease domain Q38H/I41S/ins97aV/A112V/C122S/Q192A/Q209L (enzyme)
chain: B6 chain with Q23H, F44Y, A108V, D184G, V189A, Q207L, V215D

EC50 hC3 cleavage: 4.49 nM
B17: MTSP-1 protease domain Q38W/I41V/D96R/ins97aA/C122S/G151N (enzyme)
chain: B6 chain with Q23W, S26V, F44Y, D91R, V93A, G146N, D184G, V189Q, V215D

EC50 hC3 cleavage: 33.4 nM
B19: MTSP-1 protease domain I41S/ins97aV/C122S/Q192G/Q209L (enzyme)
chain: B6 chain with F44Y, D184G, V189G, Q207L, V215D

EC50 hC3 cleavage: 12.5 nM
B22: MTSP-1 protease domain Q38Y/I41T/D96M/ins97aS/C122S/G151N (enzyme)
chain: B6 chain with Q23Y, S26T, F44Y, D91M, V93S, G146N, D184G, V189Q, V215D

EC50 hC3 cleavage: 11 nM
B25: MTSP-1 protease domain I41S/ins97aV/C122S/Q192V/D217V (enzyme)
chain: B6 chain with F44Y, D184G

EC50 hC3 cleavage: 25.6 nM
B26: MTSP-1 protease domain Q38H/I41S/D96K/ins97aS/C122S/G151P/Q192S (enzyme)
chain: B6 chain with Q23H, F44Y, D91K, V93S, G146P, D184G, V189S, V215D

EC50 hC3 cleavage: 10.2 nM
B27: MTSP-1 protease domain Q38H/I41S/D96Q/ins97aA/C122S/Q192T (enzyme)
chain: B6 chain with Q23H, F44Y, D91Q, V93A, D184G, V189T, V215D
